This note sets out measurements from the supplement of paper PMC11780869.

In the data set the test system is Bacillus subtilis. In words: cleaved RNA product abundance (RNA/gDNA barcode ratio) relative to median wild-type variant (ratio to wild type); higher = more accumulation of the downstream cleavage product. As to conditions: cleavage site: cggR-gapA (positions -7 to +36 mutated). In outline:
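Reporter mRNAs based on truncated aprE or tetM carried barcoded, mutagenized RNase Y cleavage-site windows built from oligos with a 9% error rate and were integrated into the B. subtilis chromosome. Cultures grew in LB at 37°C from OD600 0.0003 to 0.3. Cleaved RNA was gel-selected, reverse transcribed and barcode-sequenced together with genomic DNA barcodes, and UMIs were collapsed. Cleaved product abundance is the per-construct ratio of RNA to gDNA barcodes, scaled to the median of constructs carrying the unmutated site.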

Where [1] appears, read: experiment (reporter, strain, medium): exp 2b: truncated aprE reporter, strain BJT200.
Setting [2] is: experiment (reporter, strain, medium): exp 4a: truncated aprE reporter, strain BJT201 with 2% xylose (RNase J1 expressed).
Setting [3] is: experiment (reporter, strain, medium): exp 6: tetM reporter, strain 168.

Regarding “ACAGACGAAGGAGCCGCAAAGAAGTTATTAAGGGATGAATAATCTCTCAATATATATATCTCTCACTTATTTAAA”, the “cleaved RNA product abundance” value worked out at 0.682 under setting [1] and 0.989 under setting [2]. Turning to “ACAGACGAAGGAGCCGCAAAGAAGTTATTAAGGGATGAATAATCTCTCATTATAAATATCTCTCACTTATTTAAA”, the “cleaved RNA product abundance” value under setting [2] was determined as 0.351.

Consider “ACAGACGAAGGAGCCGCAAAGAAGTTATTAAGGGATGAATAATCTCTCTATATAAATATCTCTCACTTATTTAAA”, for which the “cleaved RNA product abundance” value under setting [2] was found to be 0.292. On to “ACAGACGAAGGAGCCGCAAAGAAGTTATTAAGGGATGAATAATCTCTGAATATAAATATCTCTCACTTATTTAAA”, for which the “cleaved RNA product abundance” value under setting [2] was 0.634. Regarding “ACAGACGAAGGAGCCGCAAAGAAGTTATTAAGGGATGAATAATCTGTCAATATAAATATCTCTCACTTATTTAAA”, the “cleaved RNA product abundance” value turned out to be 0.0956 under setting [1] and 0.123 under setting [2]. With “ACAGACGAAGGAGCCGCAAAGAAGTTATTAAGGGATGAATAATCTTTCAATATAAATATCTCTCACTTATTTAAA”, the “cleaved RNA product abundance” value under setting [2] was found to be 0.122. On to “ACAGACGAAGGAGCCGCAAAGAAGTTATTAAGGGATGAATAATGACTCAATATAAATATCTCTCACTTATTTAAA”, for which, under setting [2], the “cleaved RNA product abundance” value was found to be 0.142. “ACAGACGAAGGAGCCGCAAAGAAGTTATTAAGGGATGAATAATGCATCAATATAAATATCTCTCACTTATTTAAA”: the “cleaved RNA product abundance” value under setting [2] is 0.159. Regarding “ACAGACGAAGGAGCCGCAAAGAAGTTATTAAGGGATGAATAATGCCACAATATAAATATCTCTCACTTATTTAAA”, the “cleaved RNA product abundance” value under setting [2] amounted to 0.0904.

Turning to “ACAGACGAAGGAGCCGCAAAGAAGTTATTAAGGGATGAATAATGCCCCAATATAAATATCTCTCACTTATTTAAA”, the “cleaved RNA product abundance” value under setting [2] is 0.134. With “ACAGACGAAGGAGCCGCAAAGAAGTTATTAAGGGATGAATAATGCCTAAATATAAATATCTCTCACTTATTTAAA”, the “cleaved RNA product abundance” value under setting [2] stood at 0.149. “ACAGACGAAGGAGCCGCAAAGAAGTTATTAAGGGATGAATAATGCCTCAAAATAAATATCTCTCACTTATTTAAA”: under setting [2], the “cleaved RNA product abundance” value was found to be 0.173. Turning to “ACAGACGAAGGAGCCGCAAAGAAGTTATTAAGGGATGAATAATGCCTCAATAGAAATATCTCTCACTTATTTAAA”, the “cleaved RNA product abundance” value under setting [2] came out at 0.0653. For “ACAGACGAAGGAGCCGCAAAGAAGTTATTAAGGGATGAATAATGCCTCAATATAAAAATCTCTCACTTATTTAAA”, the “cleaved RNA product abundance” value reads like this: under setting [1], 0.15; under setting [2], 0.159. With “ACAGACGAAGGAGCCGCAAAGAAGTTATTAAGGGATGAATAATGCCTCAATATAAATATCTCTCACTTATTTAAA”, the “cleaved RNA product abundance” value by setting is: under setting [1], 0.129; under setting [2], 0.17; under setting [3], 0.128.

As for “ACAGACGAAGGAGCCGCAAAGAAGTTATTAAGGGATGAATAATGCCTCACTATAAATATCTCTCACTTATTTAAA”, the “cleaved RNA product abundance” value under setting [2] was 0.142. “ACAGACGAAGGAGCCGCAAAGAAGTTATTAAGGGATGAATAATGCCTCATTATAAATATCTCTCACTTATTTAAA”: the “cleaved RNA product abundance” value under setting [2] amounted to 0.127. As to “ACAGACGAAGGAGCCGCAAAGAAGTTATTAAGGGATGAATAATGCCTCTATATAAATATCTCTCACTTATTTAAA”, the “cleaved RNA product abundance” value under setting [1] is 0.111.

In the case of “ACAGACGAAGGAGCCGCAAAGAAGTTATTAAGGGATGAATAATGGCTCAATATAAATATCTCTCACTTATTTAAA”, the “cleaved RNA product abundance” value under setting [2] is 0.0723. On the same count and under the same terms, then “ACAGACGAAGGAGCCGCAAAGAAGTTATTAAGGGATGAATAATGTCTCAATATAAATATCTCTCACTTATTTAAA”, with 0.0823. In the case of “ACAGACGAAGGAGCCGCAAAGAAGTTATTAAGGGATGAATAATTACTCAATATAAATATCTCTCACTTATTTAAA”, the “cleaved RNA product abundance” value turned out to be 0.0971 under setting [1], 0.137 under setting [2] and 0.11 under setting [3].

For “ACAGACGAAGGAGCCGCAAAGAAGTTATTAAGGGATGAATAATTCATCAATATAAATATCTCTCACTTATTTAAA”, under setting [2], the “cleaved RNA product abundance” value was determined as 0.201. For the sequence “ACAGACGAAGGAGCCGCAAAGAAGTTATTAAGGGATGAATAATTCCACAATATAAATATCTCTCACTTATTTAAA”, the “cleaved RNA product abundance” value under setting [2] is 0.148. Take “ACAGACGAAGGAGCCGCAAAGAAGTTATTAAGGGATGAATAATTCCGCAATATAAATATCTCTCACTTATTTAAA”: under setting [2], the “cleaved RNA product abundance” value worked out at 0.188. The same measure, in the same setting: the figure for “ACAGACGAAGGAGCCGCAAAGAAGTTATTAAGGGATGAATAATTCCTAAATATAAATATCTCTCACTTATTTAAA” is 0.508. Consider “ACAGACGAAGGAGCCGCAAAGAAGTTATTAAGGGATGAATAATTCCTCAAAATAAATATCTCTCACTTATTTAAA”, for which the “cleaved RNA product abundance” value under setting [2] was found to be 0.331.

On to “ACAGACGAAGGAGCCGCAAAGAAGTTATTAAGGGATGAATAATTCCTCAACATAAATATCTCTCACTTATTTAAA”, for which the “cleaved RNA product abundance” value under setting [1] amounted to 0.134 and the “cleaved RNA product abundance” value under setting [2] was 0.183. In the case of “ACAGACGAAGGAGCCGCAAAGAAGTTATTAAGGGATGAATAATTCCTCAAGATAAATATCTCTCACTTATTTAAA”, the “cleaved RNA product abundance” value stood at 0.146 under setting [1] and 0.256 under setting [2]. In the case of “ACAGACGAAGGAGCCGCAAAGAAGTTATTAAGGGATGAATAATTCCTCAATATAAAAATCTCTCACTTATTTAAA”, the “cleaved RNA product abundance” value under setting [2] was 0.86. Consider “ACAGACGAAGGAGCCGCAAAGAAGTTATTAAGGGATGAATAATTCCTCAATATAAATATCTCTCACTTATTTAAA”, for which the “cleaved RNA product abundance” value is, setting by setting: under setting [1], 0.506; under setting [2], 0.616; under setting [3], 0.494. As for “ACAGACGAAGGAGCCGCAAAGAAGTTATTAAGGGATGAATAATTCCTCAATATAAATGTCTCTCACTTATTTAAA”, the “cleaved RNA product abundance” value under setting [2] was 0.564. Still for that read-out and setting: the figure for “ACAGACGAAGGAGCCGCAAAGAAGTTATTAAGGGATGAATAATTCCTCAATATAAATTTCTCTCACTTATTTAAA” is 0.625. On to “ACAGACGAAGGAGCCGCAAAGAAGTTATTAAGGGATGAATAATTCCTCAATATAATTATCTCTCACTTATTTAAA”, for which the “cleaved RNA product abundance” value stood at 0.298 under setting [1] and 0.254 under setting [2].

As for “ACAGACGAAGGAGCCGCAAAGAAGTTATTAAGGGATGAATAATTCCTCAATATACATATCTCTCACTTATTTAAA”, the “cleaved RNA product abundance” value under setting [2] is 0.498. Regarding “ACAGACGAAGGAGCCGCAAAGAAGTTATTAAGGGATGAATAATTCCTCAATTTAAATATCTCTCACTTATTTAAA”, the “cleaved RNA product abundance” value reads like this: under setting [1], 0.0889; under setting [2], 0.0634.

Regarding “ACAGACGAAGGAGCCGCAAAGAAGTTATTAAGGGATGAATAATTCCTCACTATAAATATCTCTCACTTATTTAAA”, the “cleaved RNA product abundance” value under setting [1] is 0.132 and the “cleaved RNA product abundance” value under setting [2] is 0.156. In the case of “ACAGACGAAGGAGCCGCAAAGAAGTTATTAAGGGATGAATAATTCCTCATTATAAATATCTCTCACTTATTTAAA”, the “cleaved RNA product abundance” value was found to be 0.177 under setting [1] and 0.306 under setting [2]. With “ACAGACGAAGGAGCCGCAAAGAAGTTATTAAGGGATGAATAATTCCTCCATATAAATATCTCTCACTTATTTAAA”, the “cleaved RNA product abundance” value is, setting by setting: under setting [1], 0.102; under setting [2], 0.119. “ACAGACGAAGGAGCCGCAAAGAAGTTATTAAGGGATGAATAATTCCTCTATATAAATATCTCTCACTTATTTAAA”: under setting [2], the “cleaved RNA product abundance” value was 0.248. Regarding “ACAGACGAAGGAGCCGCAAAGAAGTTATTAAGGGATGAATAATTCCTGAATATAAATATCTCTCACTTATTTAAA”, the “cleaved RNA product abundance” value under setting [2] amounted to 0.471.

For the sequence “ACAGACGAAGGAGCCGCAAAGAAGTTATTAAGGGATGAATAATTCGTCAATATAAATATCTCTCACTTATTTAAA”, the “cleaved RNA product abundance” value under setting [1] turned out to be 0.0726.
